These results are taken from the supplement of paper PMC9112550, “Optimization of the antimicrobial peptide Bac7 by deep mutational scanning” (BMC Biology, 2022).
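Also: peptides expressed intracellularly from a pBAD plasmid library in pooled LB shake-flask culture, induced with 0.3% L-arabinose, DNA abundance read by NGS, three biological replicates, DESeq2 with apeglm shrinkage.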

The data set concerns Escherichia coli TOP10. The experiment in a line: shrunken log2 fold change of peptide-encoding DNA abundance (4.5 h post-induction vs induction); higher = less antimicrobial activity (less host growth inhibition). To be noted: time post-induction: 4.5 h; library: site-saturation at positions 5, 18, 19, 20.
On to RRIRYRPPRLPRPRPRPLDRPRP, for which the “shrunken log2 fold change” value was -0.182.
As for RRIRLRPPRLPRPRPRPMWTPRP, the “shrunken log2 fold change” value was -0.0582.
Take RRIRPRPPRLPRPRPRPPQFPRP: the “shrunken log2 fold change” value was 0.297.
Next, RRIRWRPPRLPRPRPRPHTKPRP: 0.0624.
With RRIRSRPPRLPRPRPRPRWDPRP, the “shrunken log2 fold change” value was determined as 0.197.
As for RRIRCRPPRLPRPRPRPRLIPRP, the figure is 0.0496.
In the case of RRIRCRPPRLPRPRPRPEVPPRP, the “shrunken log2 fold change” value was -0.119.
As for RRIRNRPPRLPRPRPRPSIEPRP, the figure is -0.214; as for RRIRPRPPRLPRPRPRPMQFPRP, 0.231; as for RRIRARPPRLPRPRPRPEMVPRP, 0.00546.
With RRIRGRPPRLPRPRPRPCCHPRP, the “shrunken log2 fold change” value was 0.345.
Next, RRIRGRPPRLPRPRPRPMKKPRP: 1.17.
As for RRIRIRPPRLPRPRPRPGPPPRP, the figure is 0.221.
As for RRIRYRPPRLPRPRPRPEFGPRP, the “shrunken log2 fold change” value is 0.113.
As for RRIRKRPPRLPRPRPRPMFMPRP, the figure is -0.116; as for RRIRPRPPRLPRPRPRPFPVPRP, 0.00381.
Next, RRIRIRPPRLPRPRPRPIYSPRP: -0.946; RRIRKRPPRLPRPRPRPCVAPRP: 0.223.
Next, RRIRWRPPRLPRPRPRPMYIPRP: -0.144; RRIRERPPRLPRPRPRPREGPRP: 0.46; RRIRVRPPRLPRPRPRPWPSPRP: 0.143.
In the case of RRIRSRPPRLPRPRPRPTLAPRP, the “shrunken log2 fold change” value amounted to 0.542.
On to RRIRMRPPRLPRPRPRPFMPPRP, for which the “shrunken log2 fold change” value was -0.127.
Next, RRIRHRPPRLPRPRPRPAREPRP: 0.256; RRIRYRPPRLPRPRPRPSSLPRP: -0.0385.
As for RRIRTRPPRLPRPRPRPAHNPRP, the figure is -0.215; as for RRIRRRPPRLPRPRPRPNQPPRP, -0.0317; as for RRIRQRPPRLPRPRPRPLQHPRP, 0.164.
As for RRIRRRPPRLPRPRPRPGSDPRP, the figure is 0.421; as for RRIRDRPPRLPRPRPRPRSHPRP, -0.0765.
As for RRIRFRPPRLPRPRPRPILAPRP, the “shrunken log2 fold change” value amounted to 0.0156.
As for RRIRSRPPRLPRPRPRPHRKPRP, the figure is -0.077; as for RRIRMRPPRLPRPRPRPTCRPRP, 0.32.
With RRIRHRPPRLPRPRPRPMQSPRP, the “shrunken log2 fold change” value is -0.215.
As for RRIRMRPPRLPRPRPRPPESPRP, the figure is 2.5; as for RRIRFRPPRLPRPRPRPMVDPRP, -0.304.
RRIRTRPPRLPRPRPRPYVSPRP: the “shrunken log2 fold change” value was -0.244.
In the case of RRIRQRPPRLPRPRPRPKWPPRP, the “shrunken log2 fold change” value came out at 0.166.
Turning to RRIRWRPPRLPRPRPRPDKAPRP, the “shrunken log2 fold change” value was -0.00149.
RRIRCRPPRLPRPRPRPITFPRP: the “shrunken log2 fold change” value was -0.167.
In the case of RRIRHRPPRLPRPRPRPPCSPRP, the “shrunken log2 fold change” value is -0.217.
As for RRIRVRPPRLPRPRPRPIRWPRP, the figure is -0.0339; as for RRIRFRPPRLPRPRPRPSNYPRP, -0.396; as for RRIRRRPPRLPRPRPRPPNNPRP, 0.177.
Next, RRIRIRPPRLPRPRPRPRVSPRP: 0.0983; RRIRMRPPRLPRPRPRPLFRPRP: 1.44.
On to RRIRPRPPRLPRPRPRPTYYPRP, for which the “shrunken log2 fold change” value is -0.636.
Consider RRIRHRPPRLPRPRPRPQTDPRP, for which the “shrunken log2 fold change” value is -1.36.
Take RRIRHRPPRLPRPRPRPMVTPRP: the “shrunken log2 fold change” value was -1.08.
Next, RRIRKRPPRLPRPRPRPWHLPRP: -0.596.
For the sequence RRIRSRPPRLPRPRPRPTTKPRP, the “shrunken log2 fold change” value was 0.0807.
As for RRIRKRPPRLPRPRPRPEPTPRP, the figure is 1.47.
RRIRMRPPRLPRPRPRPFFEPRP: the “shrunken log2 fold change” value was determined as 0.597.
As to RRIRARPPRLPRPRPRPWLTPRP, the “shrunken log2 fold change” value came out at 0.0459.
With RRIRQRPPRLPRPRPRPNAQPRP, the “shrunken log2 fold change” value was 0.0116.
Next, RRIRIRPPRLPRPRPRPPMKPRP: -0.789; RRIRDRPPRLPRPRPRPIQHPRP: -0.444.
Next, RRIRIRPPRLPRPRPRPNENPRP: -0.59; RRIRMRPPRLPRPRPRPPVDPRP: 1.14; RRIRRRPPRLPRPRPRPFWFPRP: -0.138.
Next, RRIRQRPPRLPRPRPRPLHHPRP: -0.73; RRIRTRPPRLPRPRPRPNMTPRP: -0.0848; RRIRQRPPRLPRPRPRPWFTPRP: -0.356.
With RRIRARPPRLPRPRPRPVAPPRP, the “shrunken log2 fold change” value was determined as 0.612.
On to RRIRPRPPRLPRPRPRPVKMPRP, for which the “shrunken log2 fold change” value worked out at 0.137.
As for RRIRLRPPRLPRPRPRPDLAPRP, the figure is -0.062; as for RRIRARPPRLPRPRPRPAFVPRP, 0.315.
Next, RRIRCRPPRLPRPRPRPIYWPRP: -0.815.
Turning to RRIRCRPPRLPRPRPRPALPPRP, the “shrunken log2 fold change” value was 0.143.
Next, RRIRGRPPRLPRPRPRPYLQPRP: -0.182.
As for RRIRLRPPRLPRPRPRPHYIPRP, the figure is -0.615; as for RRIRCRPPRLPRPRPRPRYSPRP, -0.712.
For RRIRIRPPRLPRPRPRPKHGPRP, the “shrunken log2 fold change” value is -0.113.
As for RRIRHRPPRLPRPRPRPSVVPRP, the figure is 0.118; as for RRIRPRPPRLPRPRPRPHHSPRP, -0.454; as for RRIRNRPPRLPRPRPRPNHCPRP, -0.216.
Next, RRIRQRPPRLPRPRPRPHKSPRP: -0.0741.
For the sequence RRIRGRPPRLPRPRPRPQNHPRP, the “shrunken log2 fold change” value was -0.18.
RRIRFRPPRLPRPRPRPQNTPRP: the “shrunken log2 fold change” value was -0.512.
Next, RRIRVRPPRLPRPRPRPSPWPRP: 0.021.
Next, RRIRARPPRLPRPRPRPFSKPRP: -0.301.
In the case of RRIRDRPPRLPRPRPRPFDWPRP, the “shrunken log2 fold change” value was 0.374.
As for RRIRRRPPRLPRPRPRPHSYPRP, the figure is -0.187; as for RRIRMRPPRLPRPRPRPEVWPRP, 1.13; as for RRIRYRPPRLPRPRPRPNCTPRP, -0.126.
On to RRIRHRPPRLPRPRPRPAAPPRP, for which the “shrunken log2 fold change” value was determined as 0.093.
Consider RRIRCRPPRLPRPRPRPVCGPRP, for which the “shrunken log2 fold change” value amounted to 0.268.
For the sequence RRIRNRPPRLPRPRPRPVDMPRP, the “shrunken log2 fold change” value was -0.104.
Next, RRIRPRPPRLPRPRPRPDDTPRP: -0.085; RRIRQRPPRLPRPRPRPADVPRP: 0.0705.
As for RRIRPRPPRLPRPRPRPWTNPRP, the figure is -0.0167; as for RRIRYRPPRLPRPRPRPNVAPRP, -0.0308.
In the case of RRIRVRPPRLPRPRPRPCMMPRP, the “shrunken log2 fold change” value was -0.33.
Next, RRIRVRPPRLPRPRPRPLNCPRP: -0.257; RRIRCRPPRLPRPRPRPGWSPRP: -0.0169.
For RRIRSRPPRLPRPRPRPDRPPRP, the “shrunken log2 fold change” value was -0.0605.
RRIRSRPPRLPRPRPRPGEYPRP: the “shrunken log2 fold change” value was -0.275.
As for RRIRNRPPRLPRPRPRPIFKPRP, the figure is -0.174.
As to RRIRPRPPRLPRPRPRPPKYPRP, the “shrunken log2 fold change” value is -0.148.
As for RRIRNRPPRLPRPRPRPKNKPRP, the figure is -0.0876.
On to RRIRCRPPRLPRPRPRPIAMPRP, for which the “shrunken log2 fold change” value is -0.0964.
RRIRPRPPRLPRPRPRPCKMPRP: the “shrunken log2 fold change” value was -0.223.
Next, RRIRKRPPRLPRPRPRPKKSPRP: 0.575; RRIRQRPPRLPRPRPRPLHVPRP: -0.324; RRIRFRPPRLPRPRPRPSSRPRP: -0.273.
As to RRIRARPPRLPRPRPRPQTAPRP, the “shrunken log2 fold change” value was 0.188.
RRIRRRPPRLPRPRPRPWYDPRP: the “shrunken log2 fold change” value is -0.25.
With RRIRGRPPRLPRPRPRPRFTPRP, the “shrunken log2 fold change” value amounted to 0.582.
Turning to RRIRSRPPRLPRPRPRPRHLPRP, the “shrunken log2 fold change” value is -0.319.
Take RRIRCRPPRLPRPRPRPQGHPRP: the “shrunken log2 fold change” value is -0.0916.
Regarding RRIRLRPPRLPRPRPRPPCHPRP, the “shrunken log2 fold change” value was -0.178.
Turning to RRIRQRPPRLPRPRPRPRRRPRP, the “shrunken log2 fold change” value came out at 0.255.
As for RRIRIRPPRLPRPRPRPESNPRP, the figure is 0.0344; as for RRIRSRPPRLPRPRPRPCSEPRP, -0.228.
Next, RRIRFRPPRLPRPRPRPASAPRP: 0.47; RRIRRRPPRLPRPRPRPYHEPRP: 0.016.
With RRIRHRPPRLPRPRPRPGQRPRP, the “shrunken log2 fold change” value is 0.0218.
Consider RRIRTRPPRLPRPRPRPVHVPRP, for which the “shrunken log2 fold change” value came out at 0.039.
RRIRHRPPRLPRPRPRPWNNPRP: the “shrunken log2 fold change” value is -0.453.
As for RRIRARPPRLPRPRPRPFMIPRP, the figure is -0.1.
Next, RRIRHRPPRLPRPRPRPAWRPRP: 0.654; RRIRERPPRLPRPRPRPRIGPRP: -0.0649.
In the case of RRIRMRPPRLPRPRPRPQPSPRP, the “shrunken log2 fold change” value amounted to 1.11.
As for RRIRLRPPRLPRPRPRPPMQPRP, the “shrunken log2 fold change” value worked out at 0.189.
For the sequence RRIRIRPPRLPRPRPRPKFPPRP, the “shrunken log2 fold change” value is -0.204.
